A protein production outcome set (Wang et al. 2014)

Assay: label from the status in PepcDB records

Sequence	protein production
MTPDIRLRVDGRAIVLLTAGCAPGLCPAFAFWACKASAPGRSIAVTPMRSEQQQTDQHADTLHPYACECHAAHLPSSRKKARMRASLFKFGLNLWRPFLFAGIHVTVLSEDYRFARVELRHRPWNRNYVGTHFGGSLFAMTDPFWMLLTIHNLGRDYYVWDKAGNIEFVKPGRGTLTADFVIDDSLLAQLRQATASGEKHLRWFENEVHHRDGEVVARVRKQLYVKRKPAR	failed
IDKKLTTLADLFRPPIDLMHKGSFETAKECGQMQNKWLMINIQNVQDFACQCLNRDVWSNEAVKNIIREHFIFWQVYHDSEEGQRYIQFYKLGDFPYVSILDPRTGQKLVEWHQLDVSSFLDQVTGFLGEHGQLDGLSSS	not failed
MTQRDTGRLDAIVLAAGRGVRFGGGKLTALLDGDPLVAAALLTAFLAPARRVVVAVGPEPDVRQAVEATATRLLARERLVLVPIDDPSAGMGASLAAAARSLPGDTDGVFVFLGDMPRIDPATPRHLAAALRDPGDIVAPTYLGRRGHPVLFGARWAPVLGALSGDEGARAIVDKAGESLVLVPVDDPGVHLDVDRPSDLARVQTDRRTLLEHHHHHH	not failed
MGIHKPKFYAVRAGRDKGVFSSWEECRKAIYGFSGAVYRSFPTLEEAQAWFKGETLSDPLKAEDDSLRDDRTEYDVYTDGSYVNGQYAWAYAFVKDGKVHYEDADVGKNPAAATMRNVAGEIAAALYAVKKASQLGVKIRILHDYAGIAFWATGEWKAKNEFTQAYAKLMNQYRGIYSFEKVKAHSGNEFNDYVDMKAKSALGIRDLEHHHHHH	failed
MKLQTTIQHEPKDGSGFDRGLREFFEYRDTGVNEATGGMFGAHVIRAIPGKEAKPTWHTHTVGFQLFYVLRGWVEFEYEDIGAVMLEAGGSAFQPPGVRHRELRHSDDLEVLEIVSPAGFATSVVDLEEARKP	not failed
MFTDLDLALFFIIIFIVLFIGYIAYFWRKPDDIHKHGEWSLGGRRFGTVVVWFLLGGDLYTAYTLIAVPGAAATPGIGGGAFAMFAITYGIMIYPIVYGTMPRLYNVSKKRGYITAADFVKDRFSSRFLAMLIALTGVLAELPYIALQITGIKYVLASLSLPISISLIIAFLLVAGFTFVSGLRGPALTAIIKDAIIWAAVLVIIVYIPLKLHGFGNIFSKAATISPNLLDISPTIDIGYVSLALGSALALFLYPHAVTGTLGSKDVKTIKRNAALLPLYNVLLMFVAIIGIMSVVYFNAYPKVSSEALPLLVLHVFPSTFTAFAFAAIVVGSIVPASIMALASANLLTRNLYLEYINPNATEKAQTNLSRVLVVVVIVAALAFSLVPAASGEIVYLQTIGGAIIMQTLPSVYLALFTRKLNKYPVGLGWLAGLATTMILLVDLHFKTSLYKGFFFMYVGIIALLINLAVVGLGMLIMAAMHRIKNEGIIEDHEFLDE	failed
MKIATTSSAFDLLPKDQKYKTKRVSYNDFSDLSFLPVVNPKIKRQKKTLEEEVDSTSKAKSSRTSLTKSVTTTTKLTKPEETITASSKECLQETKTNKKPDLRDLIAKAQEKIQNKREINHRREYITRQRIAARLALNQMVATVSFDDHLNYHREMEQRGYTFIQDQVDNLNMFSLWSRSDYNGITNSVLETSNTTMRSDEDSSRKKQQIIKKKSNTFPTDVKEH	failed
MAQVINEMDVPSHSFVFHGTGERYFLICVVNVLLTIITLGIYLPWALMKCKRYLYANMEVNGQRFSYGITGGNVFFSCLVFVFFYFAILMTVSADMPLIGCVLTLSLLVLLIFMAAKGLRYQALMTSLNGVRFSFNCSMKGVWWVTFFLPILMAIGMGTVFFISTKMLHANSSSSVIVSVVLMAIVGIVSIGIFNGTLYSLVMSFLWSNTSFGIHRFKVKLDTAYCIKYAILAFLALLPFLAVAGYIIFDQILNAYDSSVYANDDIENLQQFMEMQRKMIIAQLIYYFGIAVSTSYLTVSLRNHFMSNLSLNDGRIRFRSTLTYHGMLYRMCALVVISGITGGLAYPLLKIWMIDWQAKNTYLLGDLDDLPLINKEEQPDKGFLASISRGIMPSLPFL	failed
MSLAISITMETFYSLYPAVKHLHLTLIAVSVLFFVVRFVLHLRQSALMGKKVFKVAPHVIDTFLLLSGLVLCFMIKQYPFVDPWLTEKIGAVVAYIALGVIAIKANRNKLFKVFAFLGAIGWLVYAAKLAHFKQAVLLG	failed
MQYLIVKYSHQIFVTITILVFNIRFFLLWKNPEKPLVGFWKALPHLNDTMLLFTGLWLMKITHFSPFNAPWLGTKILLLFAYIALGMVMMRARPRSTKFYTVYLLAMCCIACIVYLAKTKVLPF	failed
MTQSALHTEFGGIAALRDALARRQVSAVELAQSGLDAAQAASGLNAFLHIDPELTLAQARAADAALAAGTAGPLAGIPIAHKDAFVTRGWRTTAGSKMLAGYASPFDATVVERLAEAGAVSLGKLNCDEFAMGSGNENSAYGPVRNPWDTRAVPGGSSGGSAAAVAARLVAAATGTDTGGSVRQPAALCGVSGIKPTYGTVSRYGMIAFGSSLDQAGPLAPSSRDLLELLDVMTGFDPRDATSLQACDGQANESGRVRRGHDAAQAGYDAAGSQPLKGLRIGVPQEYFGAGLAPDVAAAVEAALAQFEQLGAVRVPVSLPRTELAIPAYYVIAPAEASSNLARYDGVRYGHRAAQYGDLNEMISRSRAEGFGDEVKRRILIGTYVLSHGYYDAYYLQAQRLRRLIAQDFQRAFADQCDVIMGPVSPTVAKNIGDNRDDPTADWLADVYTLGVSLAGLPAMSVPCGFGGQDGRRPVGLQIIGNYFDEGRLLALADRYQQVTDWHQRAPVSQDA	failed
MILIRYLIKEVFKSQIAILLILLLIFFSQQFVRVLGAAANGNVPADLVFSLLGLGMPTMAQLMLPLCLFIAILLTFGRLYAESEITVMRACGVGQRILVKVALIMSLLTAGIAAYNALWLSPWAIQKQVNMVEDAKANPTVGVLSSGQFISTNNNNVVLFIDKIKDNQIRNVYLFQMTPQKQTKPSVITAEKGELIALPNGDQVLNLKNTKRVEGTSALPDFRITHFDEYHAYLGYQSAENTNDEVAELTLSQLIDLDSSSAKAELHWRITLILAVPLMALIAVPLSRVNPRQGRFAKILPALLLYLIYFLLQSSFKSAGSAGKLEAELLMPLVNIGFFLLAVVLNSWDSEIMYKFRYLFSKKGSAKDDKYP	failed
MSLTINVGLLVDETGPTSDVGKGYSLGAELAFKYFNEKGIYTKDGVRVNINYIKRDYAYNPTTAEEYYREFRDRYGVIAIIGWGTADTEKLSDQVDTDKITYISASYSAKLLVKPFNFYPAPDYSTQACSGLAFLASEFGQGKLALAYDSKVAYSRSPIGAIKKAAPSLGLQVVGDYDLPLRATEADAERIAREMLAADPDYVWCGNTISSCSLLGRAMAKVGLDAFLLTNVWGFDERSPQLIGEGGYGKVFGISPFIYPMFGQDVEGIQTIFEAARMNGVSEDQINLRVVQGFVNVWLLIKAIESVTSQDLQERGGEALKEALEANTFDLGGITADTIDYEPGFHLAYRKVFIIKLGENGELQLMGKFEAPSQVDCARYTIEEGHHHHHH	not failed
MLHLLTLSSLGRDLFNIKMLIVILITIGLITLMTILTYLLEQQVHRRQNRYWTIGAHGAEALSVLISMILLRQIFITLNSGSIISWTYATVQLTILLFSLNTMRNLAVEIINLLMPLFIYGQAIWLGHSTQYLPVFLAMAIILISTVVYITHNYQELHATQWKYLLFQILYSGTWWGVIWSVHPFKLSHTLVIILAFVLYMWLIRLAVNRVQKFFNEVLTFDQQVNYDELTGIRNRASFDTHAREVFAAYQHHQMGPVTMVMFDIDHFKAFNDQYGHLAGDAVLRHVAHFVELELNQRSTHGQIFRYGGEEFVIIFRGISALEAGQIMRTIQRKLKTVPIKFNVQTLNVTVSIGISELQPTDQTFTDWFVRVDDYLYQSKQAGRDQTTVESQLLTD	failed
LRKQVEELFERKYAQAIKAKGPVTIPYPLFQSHVEDLYVEGLPEGIPFRRPSTYGIPRLERILLAKERIRFVIKKHELLNSTREDL	not failed
MLEACESKLDIIKNFVPSWFAAVMGTGILAVDSLLYSSYLPILKDVAVGLFYFNVLLFFIFLVPWVLRWIMFKDNALADLKHPVLSAFYPTIAVSCLVLGADFINIGHNMFWGGVFWTLGAIGMFLFSLIVPFYMFKSESIKLDHVNPGWYIPPVGLIVIPIAGSLIMPHLTGVWHELTVLINYFGWGAGFFLYLALLAVVIYRFILHHPLPSAMAPTVWINLGPIGAGIVALINMVNNSPFITIKEPFYIFSFIFWGFGLWWSLMAIIMTLYYVKKLKLPYAMSWWAFIFPLGAYVASSHLVYKIFKFSIIDYIGFGLYWLLFFFWAITLIKTTNKVYTGEVFKGH	failed
MTELEDPSRDRLKHHFAQRVIHQARQILETWQRLQKAQWSVADMAELKEATLRLMRFAERFEQAEHVALAHEINQSLDAVDANRGRLNSHVITELNRLMQRLSRTGLRHGDRLEQTSLPPLRKPVYVVLQDHERAERLAKQLEFFGLSALSLHSVADFQRAMAQRHPAAIVMDVDFSGPGMGLELASQAQEGLEQKLPLLFFSVHETDTPTRLAAVRAGGEEFLTGALEASSLLEKIEVLTCVAQYEPYKVLIIDDSRAQAMHTERVLNAAGIVTRVLIDPIQAMSELADFQPDLIILDMYMPGCTGTELAKVIRHNDRYVSVPIIYLSAEDDQDKQLDAMSEGGDDFLTKPIKPRHLITTVRNRAARARNLKSRMVRDSLTGLYNHTHILQLLEDCSFRSRREGKPLCFAMLDIDHFKRVNDSHGHPMGDRVIKSLALFLKQRLRKTDFIGRYGGEEFAIVMPDTDIHNAHKVLDEIRHRFAEIHYPAQPADLFCTFSAGVVCLGADDDSLSLASQADNALYRAKHAGRNQVHSALVQAPYHIVLAEIEA	failed
MAKGSAKKSFLDLFKITDSNDDDFDDDMFDDEDEMEDEYDDPYDEAYDSEEEYDDGSDAASDRAKASPLKSFNKYKNSRTPSGNVSKTKTAKSSQNSKLVSINSRSDRDSYDDSEVFVIKPDEFDDAQMIIDHLNRGQIIVINMEDLDLPTAQRIADFIGGASYAVNGLFQAISGNIFLATPNGTYVSGDLREELAGGSLGGEDLSKATY	failed
NQEPSGAVRITLSRFAYLLILKPAMAAFCQQYPGIQLEISVYDGTVNIIEERFDLGIRFGDILEGGVVARPLMKPFREGLYASSAYLAEYGVPAMPADLHHHRLIGYRFITNNRILPLILNDHGEQLTVEMPGQLISNDIDVM	failed
MQRIMVIGGPGSGKSTLGRKLGARLGLPVVHMDPIYWLGDWVERDKAEAMRMAKEVADGSQWVFEGNHFASMAYRAERADLIVFLDMPRVLRMWRILWRSLRYYGRTRPDMGPNCPERFNRAFLKFCWTYDREGRLRALGFVDDWRDRRRVRILTSRRQVAAFLVEIDRQLEHHHHHH	failed
MQIKEIFMIRCISCLSVVLLHIISMVLMLQAEALADISHTVDSFRTLLMFSTPAFIFISEFLLARSYPDGVPDGFLKKRGKVIFVPFLFIAAIDALLMTSAMGGEVTFLAFVQKYLANVFLGNFIGYFILVIFQFYMLHMMFHEYLKKASPKWVLSISFVVTAAYLGYFSAASPAPASEEGGAFPFFWVPFAGWLFYFCLAYYCGKEYKRFLALLNQYRWVVYGAAIASGALVVTVSYVGEIGMISSKRPDIMLYSTSMIFLCFHLFSKMKHVPKIMMFISNYSFSIYLLHAYFMIIGYVLLLNMPEIPAVPAVLLLFAVCTAGPIMTSWALNKFKYGYLFVGKIYQPKQKKVTVEVRDHAG	failed
SDMVAQALELSRKPHVVIATPGRLADHLRSSNTFSIKKIRFLVMDEADRLLEQGCTDFTVDLEAILAAVPARRQTLLFSATLTDTLRELQGLATNQPFFWEAQAPVSTVEQLDQRYLLVPEKVKDAYLVHLIQRFQDEHEDWSIIIFTNTCKTCQILCMMLRKFSFPTVALHSMMKQKERFAALAKFKSSIYRILIATDVASRGADQPPLPPGAWTSLRYRWSSTTTPPGSPRSTSTESAGRPVQGGRVRPSRW	not failed
